Laboratory results as given in PMC10279719 (Nature Communications, 2023).
Non-standard residues stand in square brackets, D forms with d. pY = N[C@@H](Cc1ccc(OP(=O)(O)O)cc1)C(=O)O

B1: PEAK SH2-pY consensus peptide (Ac-T(pY)SNLGQ-NH2) (peptide)
peptide: Ac-T[pY]SNLGQ-NH2
notes: also called consensus pY peptide; SH2-pY peptide; source: synthetic peptide, bought: Mimotopes (95% purity)
B2: CrkII SH2-NSH3 construct lacking the CSH3 domain (CrkIIΔCSH3) (domain or fragment, human, UniProt P46108-1 1-228, looked up)
chain: MAGNFDSEERSSWYWGRLSRQEAVALLQGQRHGVFLVRDSSTSPGDYVLSVSENSRVSHYIINSSGPRPPVPPSPAQPPPGVSPSRLRIGDQEFDSLPALLEFYKIHYLDTTTLIEPVSRSRQGSGVILRQEEAEYVRALFDFNGNDEEDLPFKKGDILRIRDKPEEQWWNAEDSEGKRGMIPVPYVEKYRPASASVSALIGGNQEGSHPQPLGGPEPGPYAQPSVNT
notes: CrkII, human, residues 1-228
B3: CrkII^∆CSH3 (SH2-NSH3, residues 1–228) (domain or fragment, human, UniProt P46108-1 1-228, looked up)
chain: B2 chain
notes: human CrkII residues 1-228, lacking the CSH3 domain
B4: PEAK1 1106-1121-pY1107 peptide (Ac-T(pY)SNLGQSRAAMIPPK-NH2) (peptide)
peptide: Ac-T[pY]SNLGQSRAAMIPPK-NH2
notes: human PEAK1 residues 1106-1121; source: synthetic peptide, bought: Mimotopes (95% purity)
B5: PEAK1^IDR1 (human PEAK1 residues 1082–1746) (domain or fragment, UniProt Q9H792 1082-1746, looked up)
chain: LPELEREDGKEDISDPMDPNPCSATYSNLGQSRAAMIPPKQPRQPKGAVDDAIAFGGKTDQEAPNASQPTPPPLPKKMIIRANTEPISKDLQKSMESSLCVMANPTYDIDPNWDASSAGSSISYELKGLDIESYDSLERPLRKERPVPSAANSISSLTTLSIKDRFSNSMESLSSRRGPSCRQGRGIQKPQRQALYRGLENREEVVGKIRSLHTDALKKLAVKCEDLFMAGQKDQLRFGVDSWSDFRLTSDKPCCEAGDAVYYTASYAKDPLNNYAVKICKSKAKESQQYYHSLAVRQSLAVHFNIQQDCGHFLAEVPNRLLPWEDPDDPEKDEDDMEETEEDAKGETDGKNPKPCSEAASSQKENQGVMSKKQRSHVVVITREVPCLTVADFVRDSLAQHGKSPDLYERQVCLLLLQLCSGLEHLKPYHVTHCDLRLENLLLVHYQPGGTAQGFGPAEPSPTSSYPTRLIVSNFSQAKQKSHLVDPEILRDQSRLAPEIITATQYKKCDEFQTGILIYEMLHLPNPFDENPELKEREYTRADLPRIPFRSPYSRGLQQLASCLLNPNPSERILISDAKGILQCLLWGPREDLFQTFTACPSLVQRNTLLQNWLDIKRTLLMIKFAEKSLDREGGISLEDWLCAQYLAFATTDSLSCIVKILQHR
modifications: biotin (EZ-Link NHS-PEG4-Biotin) where immobilised for SPR; no phosphorylation observed at the tandem 14-3-3 motif
notes: human PEAK1 residues 1082-1746 (part of the IDR with Y1107 and the tandem site, SHED and PsK domains); the His tag is TEV-cleavable; also called PEAK1^IDR1 dimer; not shown: His tag, N-terminal, kept
B6: PEAK1 1150-1162 proline-rich motif peptide (Ac-PTPPPLPKKMIIR-NH2) (peptide)
peptide: Ac-PTPPPLPKKMIIR-NH2
notes: source: synthetic peptide, bought: Mimotopes (95% purity)
B7: full length CrkII, monomer (CrkII^FL monomer) (natural protein, human, UniProt P46108-1 1-304, looked up)
chain: MAGNFDSEERSSWYWGRLSRQEAVALLQGQRHGVFLVRDSSTSPGDYVLSVSENSRVSHYIINSSGPRPPVPPSPAQPPPGVSPSRLRIGDQEFDSLPALLEFYKIHYLDTTTLIEPVSRSRQGSGVILRQEEAEYVRALFDFNGNDEEDLPFKKGDILRIRDKPEEQWWNAEDSEGKRGMIPVPYVEKYRPASASVSALIGGNQEGSHPQPLGGPEPGPYAQPSVNTPLPNLQNGPIYARVIQKRVPNAYDKTALALEVGELVKVTKINVSGQWEGECNGKRGHFPFTHVRLLDQQNPDEDFS
modifications: biotin (EZ-Link NHS-PEG4-Biotin, 1:1 molar ratio) where it was immobilised (a1)
notes: full length human CrkII, printed as UniProt P46108-1, residues 1-330
B8: full length CrkII, dimer (CrkII^FL dimer) (natural protein, human, UniProt P46108-1 1-304, looked up)
chain: B7 chain
modifications: biotin (EZ-Link NHS-PEG4-Biotin, 1:1 molar ratio) where it was immobilised (a1)
notes: as for B7
B9: PEAK2 809-821 proline-rich motif peptide (Ac-QPPPLPQKKIVSR-NH2) (peptide)
peptide: Ac-QPPPLPQKKIVSR-NH2
notes: human PEAK2 (SgK223, PRAG1) residues 809-821; source: synthetic peptide, bought: Mimotopes (95% purity)
B10: CrkII SH2 domain (CrkIISH2) (domain or fragment, human, UniProt P46108-1 6-120, looked up)
chain: DSEERSSWYWGRLSRQEAVALLQGQRHGVFLVRDSSTSPGDYVLSVSENSRVSHYIINSSGPRPPVPPSPAQPPPGVSPSRLRIGDQEFDSLPALLEFYKIHYLDTTTLIEPVSR
modifications: biotin (EZ-Link NHS-PEG4-Biotin) in the SPR experiment only
notes: CrkII, human, UniProt P46108-1, residues 6-120; Purifies as monomer with a proportion of dimer
B11: CrkII SH2 domain (CrkII^SH2, residues 6–120) (domain or fragment, human, UniProt P46108-1 6-120, looked up)
chain: B10 chain
modifications: biotin (EZ-Link NHS-PEG4-Biotin) where immobilised for SPR
notes: human CrkII residues 6-120, SH2 domain

Legend:
[1] = biological target: T1, CrkII SH2 domain (CrkII^SH2, residues 6-120) (human, UniProt P46108-1 6-120, biotin (EZ-Link NHS-PEG4-Biotin, 1:1 molar ratio) where it was immobilised (a1)); test: SPR; biotinylated adapter proteins captured with a biotin CAPture kit, pY peptides as analytes; Biacore 8K+, 20 °C, HBS-TP (20 mM HEPES pH 7.4, 150 mM NaCl, 1 mM TCEP, 0.005% Tween-P20) with 2% DMSO; 1 M NaCl regeneration; steady state, 1:1 model; settings: both partners purified
T1 construct: human CrkII SH2 domain, UniProt P46108-1, residues 6-120; The His tag is TEV-cleavable and was cleaved 'when required'

[2] = biological target: B8; test: as above; settings: both partners purified
[3] = biological target: B7; test: as above; settings: both partners purified
[4] = biological target: the molecule itself; test: SEC; S75 16/600 profile of the purified CrkII constructs, with SDS-PAGE of fractions
[5] = biological target: the molecule itself; test: SEC; single purified proteins on Superdex 200 (purification and re-runs), 20 mM HEPES pH 7.5–8.5, 150 mM NaCl, 1 mM TCEP; oligomeric state
[6] = biological target: T2, CrkII N-terminal SH3 domain (CrkII^NSH3, residues 134-191) (human, UniProt P46108-1 134-191); test: SPR; CrkII NSH3 amine coupled to a CM5 chip, PRM peptides as analytes (100 µM-100 nM); Biacore S200, 20 °C, HBS-TP; steady state, 1:1 model; settings: both partners purified
T2 construct: human CrkII NSH3 domain, UniProt P46108-1, residues 134-191; Amine coupled to a CM5 chip in a2; analyte in a4; in the syringe in ITC

[7] = biological target: T3, PEAK2^IDR1 (residues 802-1406), from insect cells, phosphorylated by Src (human, UniProt Q86YV5 802-1406, phosphorylated with Src kinase, sites not stated; phosphorylation of the tandem site 14-3-3 motif (RAASSP) found by proteomic analysis; biotin (EZ-Link NHS-PEG4-Biotin, 1:1 molar ratio)); test: SPR; biotinylated PEAK proteins (with or without Src phosphorylation) captured with a biotin CAPture kit; Grb2 FL, Grb2 SH2, CrkII SH2, CrkII FL monomer or dimer as analytes; Biacore 8K+, 20 °C, HBS-TP with NaCl raised to 500 mM; 1 M NaCl regeneration; steady state; settings: both partners purified
T3 construct: human PEAK2 (SgK223, PRAG1), UniProt Q86YV5, residues 802-1406; also called PEAK2-IDR1 (+ Src phosphorylation); source: Sf21 insect cells, purified; phosphorylated in vitro with recombinant Src kinase domain
T3 sequence (looked up): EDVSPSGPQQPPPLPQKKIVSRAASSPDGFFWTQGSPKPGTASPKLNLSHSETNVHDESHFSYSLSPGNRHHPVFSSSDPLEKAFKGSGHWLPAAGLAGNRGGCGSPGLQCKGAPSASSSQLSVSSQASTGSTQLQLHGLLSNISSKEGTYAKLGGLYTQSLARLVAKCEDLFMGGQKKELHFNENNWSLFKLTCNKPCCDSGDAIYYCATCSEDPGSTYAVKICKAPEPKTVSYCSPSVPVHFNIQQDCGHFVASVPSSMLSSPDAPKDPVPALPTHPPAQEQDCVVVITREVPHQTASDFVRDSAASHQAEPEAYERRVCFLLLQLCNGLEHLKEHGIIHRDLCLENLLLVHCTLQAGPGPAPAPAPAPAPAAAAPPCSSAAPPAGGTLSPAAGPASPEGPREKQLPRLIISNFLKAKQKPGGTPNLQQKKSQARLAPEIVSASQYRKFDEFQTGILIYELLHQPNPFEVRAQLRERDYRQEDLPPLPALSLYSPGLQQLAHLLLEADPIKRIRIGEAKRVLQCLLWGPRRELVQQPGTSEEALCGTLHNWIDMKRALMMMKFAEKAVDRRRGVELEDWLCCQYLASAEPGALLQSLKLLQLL

[8] = biological target: T4, PEAK1^IDR1 (residues 1082-1746), from insect cells, phosphorylated by Src (human, UniProt Q9H792 1082-1746, phosphotyrosine at Y1107 (by Src in vitro, shown by MS/MS); other Src sites not stated; biotin (EZ-Link NHS-PEG4-Biotin, 1:1 molar ratio)); test: as above; settings: both partners purified
T4 construct: human PEAK1, UniProt Q9H792, residues 1082-1746; also called PEAK1-IDR1 (+ Src phosphorylation); source: Sf21 insect cells, purified; phosphorylated in vitro with recombinant Src kinase domain
T4 sequence (looked up): B5 chain

With B1 the Kd [1] was 8.8 µM, the Kd [2] was 12.7 µM and the Kd [3] was 14.5 µM.

B2: binds [4].

B3: binds [5].

Binder B4 has a Kd [1] of 3.2 µM, a Kd [2] of 3.1 µM and a Kd [3] of 3.5 µM.

B5: binds [5].

In the case of B6, the Kd [6] is reported as 900 nM.

Binder B7 has a Kd [7] of 2120 nM and a Kd [8] of 1500 nM.

In the case of B8, the Kd [7] is reported as 1380 nM and the Kd [8] is reported as 1490 nM.

Work on B9 yielded a Kd [6] of 2400 nM.

B10: binds [4].

B11: binds [5].
